Literature values, collected in patent publication US12420014B2, “Dosing of incretin pathway drugs” (Closed Loop Medicine Ltd., priority 2023, dated 2025).

Tests used:
[1] = subcutaneous administration, patient study data
[2] = PK studies
[3] = all adverse effects, nausea, vomiting; FIG. 13 [1]
[4] = for a given plasma level; FIG. 2B [2]

semaglutide
higher clearance observed in patients with Type 2 diabetes [1]: 12%
dependence of plasma concentration on other co-medications [2]: do not show a significant dependence
plasma level below which side effects reduce [3]: less than 50 nmol/L
HbA1c reduction at high starting HbA1c (>8.7%) relative to lower starting levels (<7.4%) [4]: 3 fold
